In patent publication US20260258125A1 (NONA BIOSCIENCES SUZHOU, published 2026):
Changes are numbered by the printed parent chain. One block for each binder: values may come before it.

Key:
[1] = target: T1, human CEACAM1 protein (human, UniProt P13688 35-428); experiment: ELISA, antigen coated on plate
T1 construct: also called huCEACAM1
T1 sequence (looked up): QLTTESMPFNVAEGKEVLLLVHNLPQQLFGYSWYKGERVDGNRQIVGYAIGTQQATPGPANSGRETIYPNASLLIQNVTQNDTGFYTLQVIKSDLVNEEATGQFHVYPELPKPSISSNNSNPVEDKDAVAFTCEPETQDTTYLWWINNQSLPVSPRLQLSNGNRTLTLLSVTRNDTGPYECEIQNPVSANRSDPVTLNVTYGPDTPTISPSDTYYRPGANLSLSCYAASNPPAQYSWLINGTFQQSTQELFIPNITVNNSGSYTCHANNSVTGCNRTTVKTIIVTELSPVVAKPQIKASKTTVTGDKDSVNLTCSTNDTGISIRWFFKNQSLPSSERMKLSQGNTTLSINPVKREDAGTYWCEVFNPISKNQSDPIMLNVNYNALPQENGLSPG
Excerpt: (§1) Binding of recombinant anti-CEACAM5/6 dual-binding monoclonal antibodies against human and cynomolgus CEACAM5, and human CEACAM6 (Uniprot P40199), human CEACAM 1, 3 (NP_001806.2, Sino Biological 11933-H08H) and 8 (NP_001807.2, Acro Bio CE8-H5224) were detected by ELISA. Anti-CEACAM5/6 dual-antibodies were serially diluted in staining buffer (PBS containing 2% FBS). […] ELISA was used to test the binding between antibody containing supernatant or purified antibodies and the antigen. Briefly, the antigens were coated on a 96-well high binding plate overnight at 4° C. The plate was washed with PBST three times, incubated with blocking buffer (2% Bovine Serum Albumin) for one hour at 37° C., washed with PBST three times and incubated with antibody containing supernatant or purified antibodies at desired dilutions or concentrations for one hour at 37° C. A secondary antibody, anti-human Fc-HRP (Jackson Laboratory, 109-035-097) was used for detection of the targeted antibody. TMB and stopping solution were used for detection of HRP signal. The HRP signal was read on a SPECTRAMAX plate reader.

[2] = target: T2, human CEACAM5 protein (human, UniProt P06731 35-685); experiment: ELISA, antigen coated on plate
T2 construct: also called huCEACAM5
T2 sequence (looked up): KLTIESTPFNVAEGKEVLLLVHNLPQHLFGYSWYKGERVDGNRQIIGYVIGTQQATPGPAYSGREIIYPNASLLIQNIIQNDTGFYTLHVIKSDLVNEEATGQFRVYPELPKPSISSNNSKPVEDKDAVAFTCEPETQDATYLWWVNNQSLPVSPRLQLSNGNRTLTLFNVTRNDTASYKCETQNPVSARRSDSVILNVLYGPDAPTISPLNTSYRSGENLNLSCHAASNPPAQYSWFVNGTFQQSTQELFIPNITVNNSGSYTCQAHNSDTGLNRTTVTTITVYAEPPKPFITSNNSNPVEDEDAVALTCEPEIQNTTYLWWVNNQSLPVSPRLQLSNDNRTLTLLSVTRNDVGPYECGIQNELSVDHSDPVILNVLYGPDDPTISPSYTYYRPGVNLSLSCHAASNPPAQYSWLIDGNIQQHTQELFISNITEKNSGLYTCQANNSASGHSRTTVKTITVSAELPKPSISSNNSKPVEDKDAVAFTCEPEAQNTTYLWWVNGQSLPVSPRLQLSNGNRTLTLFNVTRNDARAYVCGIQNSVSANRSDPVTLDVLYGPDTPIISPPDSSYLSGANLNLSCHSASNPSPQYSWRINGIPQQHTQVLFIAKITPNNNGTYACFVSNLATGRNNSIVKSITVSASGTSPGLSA
Excerpt: as §1

[3] = target: T3, cyno CEACAM5 protein (cynomolgus monkey); experiment: ELISA, antigen coated on plate
T3 construct: also called cynomolgus CEACAM5
Excerpt: as §1

[4] = target: T4, human CEACAM6 protein (human, UniProt P40199 35-320); experiment: ELISA, antigen coated on plate
T4 construct: also called huCEACAM6
T4 sequence (looked up): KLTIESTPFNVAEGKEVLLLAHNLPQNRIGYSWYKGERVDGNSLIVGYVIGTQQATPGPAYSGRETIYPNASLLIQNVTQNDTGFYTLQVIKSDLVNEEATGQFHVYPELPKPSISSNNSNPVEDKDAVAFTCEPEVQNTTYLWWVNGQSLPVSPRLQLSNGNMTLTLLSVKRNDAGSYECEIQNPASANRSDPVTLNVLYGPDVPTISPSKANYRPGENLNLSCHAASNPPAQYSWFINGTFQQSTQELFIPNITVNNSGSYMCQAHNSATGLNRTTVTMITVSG
Excerpt: as §1

[5] = target: T5, human CEACAM6 on 293T cells (293T-huCEACAM6 cells) (human, UniProt P40199 35-320); experiment: flow cytometry on 293T-huCEACAM6 cells
T5 construct: whole, on cells
T5 sequence (looked up): T4 sequence (looked up)
Experimental: (§2) Binding of recombinant anti-CEACAM5/6 dual-binding antibodies against human or cynomolgus CEACAM5 or CEACAM6 stable cells were detected by flow cytometry. […] Anti-CEACAM5/6 dual-binding antibodies were incubated with the stable cell lines. Anti-CEACAM5/6 dual-binding antibodies were serially diluted in staining buffer (PBS containing 2% FBS). 50 μL of diluted antibody solution was added to 50 μL of cell suspension containing 1-2×10⁵ cells and incubated at 4° C. for 1 hour. […] After 1-hour incubation at 4° C., cells were washed twice and run on a flow cytometer. […] The results were shown in FIGS. 8-10 and Tables 6 below.

[6] = target: T6, recombinant CEACAM5-his protein, biotinylated (UniProt P06731 35-685, limits assumed, biotinylated (sites not given)); experiment: Octet epitope binning on biotinylated CEACAM5-his; competitor PR304294
T6 construct: not shown: His tag
T6 sequence (looked up): T2 sequence (looked up)
Experimental: (§3) In epitope binning analysis using Octet, antibodies were tested against other antibodies in a pairwise fashion to see if antibodies block one another's binding to the epitope of the antigen. The first and second antibodies was diluted into same concentration which could saturate the binding of immobilized antigens. Recombinant CEACAM5-his protein was biotinylationed and was then used as antigen and immobilized to SA sensor. The first antibody was associated with antigen and then followed by the second antibody. Data were analyzed by ForteBio Data Analysis Software (version 8.0, Pall ForteBio). The rate of RU values of the same antibody as 2nd antibody to as 1st antibody was calculated as the co-binding rate of this antibody to other antibodies.

[7] = target: T6, recombinant CEACAM5-his protein, …; experiment: Octet epitope binning on biotinylated CEACAM5-his; competitor PR304171
Experimental: as §3

[8] = target: T7, human CEACAM5 on 293T cells (293T-huCEACAM5 cells) (human, UniProt P06731 35-685); experiment: flow cytometry on 293T-huCEACAM5 cells
T7 construct: whole, on cells
T7 sequence (looked up): T2 sequence (looked up)
Experimental: as §2

binding result [1]: no binding | EC50 [2]: 0.04 nM | EC50 [3]: 0.09 nM | EC50 [4]: 0.22 nM | EC50 [5]: 1.32 nM | co-binding rate [6]: 1.8% | co-binding rate [7]: -4.88% | EC50 [8]: 1.26 nM
B1: PR304294 (antibody, human IgG1, kappa, V domains shown)
VH: EVQLLESGGGLVQPGGSLRLSCAASGFTFSSYAMSWVRQAPGKGLEWVSAISGTTYNTYYAGSVKGRFTISRDNSKNTLYLQMNSLRAEDTAVYYCAKGISVAGYYYYGMDVWGQGTTVTVSS
VL: EIVMTQSPATLSVSPGERATLSCRASQSVISNLAWYQQKPGQAPRLLIYGASTRATGIPARFSGSGSGTEFTLTISSLQSEDFAVYYCHQYNNWPLTFGGGTKVEIKR
notes: Recombinant full antibody

binding result [1]: no binding | EC50 [2]: 0.15 nM | EC50 [3]: 1.25 nM | EC50 [4]: 24.1 nM | EC50 [5]: 10.6 nM | co-binding rate [6]: 24.4% | co-binding rate [7]: 13.7% | EC50 [8]: 3.64 nM
B2: PR304171 (antibody, human IgG1, kappa, V domains shown)
VH: not shown
VL: B1 VL with S28N, Y36H, G50T, A51T, H89Q
notes: Recombinant full antibody
